Test results reported in PMC11137577, “Unusual OB-fold protein PrgE and its role in conjugation”.

Tests used:
[1] = molecular target: PrgE (Enterococcus faecalis (plasmid pCF10)); assay: SEC-MALS; 60 μM PrgE, Superdex 200 Increase 10/300 GL, 20 mM Hepes pH 7.5, 300 mM NaCl
PrgE WT [2] = molecular target: T1, PrgE WT (Enterococcus faecalis (plasmid pCF10), UniProt D1LHE9 1-144); assay: fluorescence anisotropy; 100 mM NaCl; 20 mM Hepes pH 7.5, 50 or 100 mM NaCl, 10 nM FITC-DNA, 0-20 uM protein, 30 min at RT; conditions: protein: recombinant, tags: C-terminal 10xHis removed with 3C (PreScission) protease, chain copies: 3
T1 sequence: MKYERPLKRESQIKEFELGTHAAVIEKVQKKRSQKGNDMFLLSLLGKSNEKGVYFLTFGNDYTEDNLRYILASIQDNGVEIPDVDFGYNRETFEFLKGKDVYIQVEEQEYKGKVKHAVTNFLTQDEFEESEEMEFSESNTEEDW

PrgE WT [3] = molecular target: T1, PrgE WT; assay: fluorescence anisotropy; 50 mM NaCl; 20 mM Hepes pH 7.5, 50 or 100 mM NaCl, 10 nM FITC-DNA, 0-20 uM protein, 30 min at RT; conditions: protein: recombinant, tags: C-terminal 10xHis removed with 3C (PreScission) protease, chain copies: 3
ΔN-PrgE = ΔN-PrgE (Enterococcus faecalis (plasmid pCF10), UniProt D1LHE9 13-144, del1-12); assay: as above; conditions: protein: recombinant, tags: C-terminal 10xHis removed with 3C (PreScission) protease
PrgE WT [4] = molecular target: T1, PrgE WT; assay: fluorescence anisotropy; 50 mM NaCl; quadratic fit (Hill coefficient ca 1.5 in Hill fit); 20 mM Hepes pH 7.5, 50 or 100 mM NaCl, 10 nM FITC-DNA, 0-20 uM protein, 30 min at RT; conditions: protein: recombinant; tags: C-terminal 10xHis removed with 3C (PreScission) protease; chain copies: 3; label: 5' FITC; single strand
PrgE WT [5] = molecular target: T1, PrgE WT; assay: X-ray crystal structure; 15% PEG 400, 50 mM MES pH 6.5, 80 mM Mg acetate, 15 mM MgCl2; 5 nt per subunit; 20 mM Hepes pH 7.5, 50 or 100 mM NaCl, 10 nM FITC-DNA, 0-20 uM protein, 30 min at RT; conditions: protein: recombinant; tags: C-terminal 10xHis removed with 3C (PreScission) protease; chain copies: 3; single strand
[6] = label: 5' FITC on strand 1, blunt

## PrgE (natural protein)
[1]
  stoichiometry N: 3

B1: 30-mer ssDNA (ssDNA)
DNA: CAGTGACAGTCTCCACGGTGAAGCAGTCGT
PrgE WT [2]; label: 5' FITC, single strand
  Kd: 1840 ± 150 nM
PrgE WT [3]; label: 5' FITC, single strand
  Kd: 1020 ± 20 nM
ΔN-PrgE; label: 5' FITC, single strand
  Kd: 3.85 ± 0.49 µM

B2: 30-mer dsDNA (dsDNA)
DNA 1: CAGTGACAGTCTCCACGGTGAAGCAGTCGT
DNA 2: ACGACTGCTTCACCGTGGAGACTGTCACTG
PrgE WT [2]; [6]
  Kd: 3360 ± 280 nM
PrgE WT [3]; [6]
  Kd: 1960 ± 260 nM
ΔN-PrgE; [6]
  Kd: 4.39 ± 0.24 µM

B3: 60-mer ssDNA (ssDNA)
DNA: CAGTGACAGTCTCCACGGTGAAGCAGTCGTACCTCTTGACGCATGAATAGATATATGTTA
PrgE WT [4]
  Kd: 330 ± 20 nM
PrgE WT [2]; label: 5' FITC, single strand
  Kd: 370 ± 10 nM
ΔN-PrgE; label: 5' FITC, single strand
  Kd: 4.49 ± 0.48 µM

B4: 60-mer dsDNA (dsDNA)
DNA 1: CAGTGACAGTCTCCACGGTGAAGCAGTCGTACCTCTTGACGCATGAATAGATATATGTTA
DNA 2: TAACATATATCTATTCATGCGTCAAGAGGTACGACTGCTTCACCGTGGAGACTGTCACTG
PrgE WT [2]; [6]
  Kd: 950 ± 30 nM
PrgE WT [3]; [6]
  Kd: 500 ± 140 nM
ΔN-PrgE; [6]
  Kd: 5.56 ± 0.19 µM

B5: Poly-A 60-mer (ssDNA)
DNA: AAAAAAAAAAAAAAAAAAAAAAAAAAAAAAAAAAAAAAAAAAAAAAAAAAAAAAAAAAAA
PrgE WT [5]
  binding result: binds
